Non-standard residues stand in square brackets, D forms with d. maleimide‑DOTA = DOTA attached via maleimide to the Cys thiol; Sta = CC(C)C[C@H](N)[C@@H](O)CC(=O)O; PEG4 = NCCOCCOCCOCCOCCC(=O)O
Experiments:
[1] = molecular target: T1, gastrin-releasing peptide receptor (human (endogenous in PC-3), UniProt P30550 1-384); assay: radioligand binding; real-time binding kinetics of 111In-labelled conjugates on living GRPR-expressing PC-3 cells; conditions in the Supporting Information; conditions: one partner purified
T1 construct: gastrin-releasing peptide receptor on GRPR-expressing PC-3 cells; also called GRPR; source: endogenous, on living PC-3 cells
T1 sequence (P30550 whole entry): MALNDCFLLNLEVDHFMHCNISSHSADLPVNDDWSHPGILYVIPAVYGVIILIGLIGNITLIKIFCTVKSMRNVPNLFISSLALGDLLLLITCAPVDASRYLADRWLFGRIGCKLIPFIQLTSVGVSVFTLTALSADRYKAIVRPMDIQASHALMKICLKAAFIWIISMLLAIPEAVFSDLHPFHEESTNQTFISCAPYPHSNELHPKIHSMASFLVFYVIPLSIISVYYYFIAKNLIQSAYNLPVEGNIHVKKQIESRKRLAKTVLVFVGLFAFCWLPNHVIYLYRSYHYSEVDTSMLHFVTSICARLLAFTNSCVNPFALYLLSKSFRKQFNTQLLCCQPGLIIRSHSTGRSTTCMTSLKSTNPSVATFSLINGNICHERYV

human serum albumin [2] = molecular target: T2, human serum albumin (human, UniProt P02768 25-609); assay: SPR; Biacore 8K; HSA amine-coupled on CM5 chip (1250 RU); constructs at 50, 25, 12.5, 6.25 and 3.125 nM flowed over at 30 uL/min in PBS-T pH 7.4; 150 s association, 3000 s dissociation; 1:1 Langmuir fit; conditions: both partners purified
T2 construct: human serum albumin; also called HSA

human serum albumin [3] = molecular target: T3, human serum albumin (human, UniProt P02768 25-609); assay: SPR; Biacore 8K; HSA immobilised on a CM5 chip by amine coupling (1250 RU); constructs at 50, 25, 12.5, 6.25 and 3.125 nM flowed at 30 uL/min in PBS-T (PBS + 0.05% Tween-20, pH 7.4); 150 s association, 3000 s dissociation; 1:1 Langmuir fit; conditions: both partners purified
T3 construct: human serum albumin (HSA), immobilised by amine coupling; also called HSA

Binder	Kd [1] [pM]	koff [1] [s⁻¹]	kon [1] [M⁻¹ s⁻¹]	Kd (human serum albumin [2]) [pM]	koff (human serum albumin [3]) [s⁻¹]	kon (human serum albumin [3]) [M⁻¹ s⁻¹]
ABD-RM26 Gen 2A conjugate (designed binder, numbers in words are those of the source; also: DOTA loaded with 111In in cell assays) MEDANSLAEAKVLANRELDKYGVSDFYC(maleimide‑DOTA)RLINKAKTVEGVEALKLHILAALPVDGSGSGSLPETGGG[PEG4][dF]QWAVGH[Sta]L-NH2	120000 ± 140000	0.013	670000	48	–	–
ABD-Cys14 control (recombinant ABD035 with N-terminal MEDANS, a Cys, a C-terminal Sortase A recognition sequence and a His-tag) (designed binder, also called ABD control; MEDANS-ABD; source: E. coli BL21 (DE3)*, purified (IMAC, HisPur Cobalt resin)) MEDANSLAEAKVLANRELDKYGVSDFYCRLINKAKTVEGVEALKLHILAALPVDGSGSGSLPETGG	–	–	–	–	0.00024	1.8e+07
ABD (albumin-binding domain; recombinant ABD035 with N-terminal MEDANS, a Cys and a C-terminal Sortase A recognition sequence and His-tag) (designed binder, also called ABD control; unconjugated ABD; source: E. coli BL21 (DE3)*, purified (IMAC, HisPur Cobalt resin); not shown: His6, C-terminal, kept) MEDANSLAEAKVLANRELDKYGVSDFYCRLINKAKTVEGVEALKLHILAALPVDGSGSGSLPETGG	–	–	–	13	–	–

Source: publication PMC11359615, “Evaluation of ABD-Linked RM26 Conjugates for GRPR-Targeted Drug Delivery” (ACS Omega, 2024)
